According to IntAct's records for PubMed 23023224:

B1: Unconventional myosin-VI (Homo sapiens), Q9UM54 (parent)
chain: MEDGKPVWAPHPTDGFQMGNIVDIGPDSLTIEPLNQKGKTFLALINQVFPAEEDSKKDVEDNCSLMYLNEATLLHNIKVRYSKDRIYTYVANILIAVNPYFDIPKIYSSEAIKSYQGKSLGTRPPHVFAIADKAFRDMKVLKMSQSIIVSGESGAGKTENTKFVLRYLTESYGTGQDIDDRIVEANPLLEAFGNAKTVRNNNSSRFGKFVEIHFNEKSSVVGGFVSHYLLEKSRICVQGKEERNYHIFYRLCAGASEDIREKLHLSSPDNFRYLNRGCTRYFANKETDKQILQNRKSPEYLKAGSMKDPLLDDHGDFIRMCTAMKKIGLDDEEKLDLFRVVAGVLHLGNIDFEEAGSTSGGCNLKNKSAQSLEYCAELLGLDQDDLRVSLTTRVMLTTAGGTKGTVIKVPLKVEQANNARDALAKTVYSHLFDHVVNRVNQCFPFETSSYFIGVLDIAGFEYFEHNSFEQFCINYCNEKLQQFFNERILKEEQELYQKEGLGVNEVHYVDNQDCIDLIEAKLVGILDILDEENRLPQPSDQHFTSAVHQKHKDHFRLTIPRKSKLAVHRNIRDDEGFIIRHFAGAVCYETTQFVEKNNDALHMSLESLICESRDKFIRELFESSTNNNKDTKQKAGKLSFISVGNKFKTQLNLLLDKLRSTGASFIRCIKPNLKMTSHHFEGAQILSQLQCSGMVSVLDLMQGGYPSRASFHELYNMYKKYMPDKLARLDPRLFCKALFKALGLNENDYKFGLTKVFFRPGKFAEFDQIMKSDPDHLAELVKRVNHWLTCSRWKKVQWCSLSVIKLKNKIKYRAEACIKMQKTIRMWLCKRRHKPRIDGLVKVGTLKKRLDKFNEVVSVLKDGKPEMNKQIKNLEISIDTLMAKIKSTMMTQEQIQKEYDALVKSSEELLSALQKKKQQEEEAERLRRIQEEMEKERKRREEDEKRRRKEEEERRMKLEMEAKRKQEEEERKKREDDEKRIQAEVEAQLARQKEEESQQQAVLEQERRDRELALRIAQSEAELISDEAQADLALRRSLDSYPVSKNDGTRPKMTPEQMAKEMSEFLSRGPAVLATKAAAGTKKYDLSKWKYAELRDTINTSCDIELLAACREEFHRRLKVYHAWKSKNKKRNTETEQRAPKSVTDYDFAPFLNNSPQQNPAAQIPARQREIEMNRQQRFFRIPFIRPADQYKDPQSKKKGWWYAHFDGPWIARQMELHPDKPPILLVAGKDDMEMCELNLEETGLTRKRGAEILPRQFEEIWERCGGIQYLQNAIESRQARPTYATAMLQSLLK
partner: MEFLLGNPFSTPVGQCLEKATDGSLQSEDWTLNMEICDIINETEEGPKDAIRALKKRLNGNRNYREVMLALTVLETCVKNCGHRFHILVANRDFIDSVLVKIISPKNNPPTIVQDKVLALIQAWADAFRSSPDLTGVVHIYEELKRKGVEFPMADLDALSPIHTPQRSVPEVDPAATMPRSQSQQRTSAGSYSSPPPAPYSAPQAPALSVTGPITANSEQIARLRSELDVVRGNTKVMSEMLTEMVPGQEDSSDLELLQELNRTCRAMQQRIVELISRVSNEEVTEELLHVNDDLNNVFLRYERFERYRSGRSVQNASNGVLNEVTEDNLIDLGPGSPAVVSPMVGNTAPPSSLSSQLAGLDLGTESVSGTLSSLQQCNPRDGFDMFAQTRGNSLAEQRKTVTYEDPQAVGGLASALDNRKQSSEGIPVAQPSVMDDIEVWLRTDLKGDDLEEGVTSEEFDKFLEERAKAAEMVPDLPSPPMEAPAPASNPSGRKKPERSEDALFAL
B2: Unconventional myosin-VI (Homo sapiens), Q9UM54 (parent)
chain: B1 chain

Variants of: B1
Conditions: with tm1l2_human TOM1L2, Q6ZVM7

Row | Variant | effect of a mutation on the interaction
1 | W1202L | disrupting interaction strength

Variants of: B2
Conditions: with TOM1, O60784-1
TOM1, O60784-1, sequence (O60784 whole entry): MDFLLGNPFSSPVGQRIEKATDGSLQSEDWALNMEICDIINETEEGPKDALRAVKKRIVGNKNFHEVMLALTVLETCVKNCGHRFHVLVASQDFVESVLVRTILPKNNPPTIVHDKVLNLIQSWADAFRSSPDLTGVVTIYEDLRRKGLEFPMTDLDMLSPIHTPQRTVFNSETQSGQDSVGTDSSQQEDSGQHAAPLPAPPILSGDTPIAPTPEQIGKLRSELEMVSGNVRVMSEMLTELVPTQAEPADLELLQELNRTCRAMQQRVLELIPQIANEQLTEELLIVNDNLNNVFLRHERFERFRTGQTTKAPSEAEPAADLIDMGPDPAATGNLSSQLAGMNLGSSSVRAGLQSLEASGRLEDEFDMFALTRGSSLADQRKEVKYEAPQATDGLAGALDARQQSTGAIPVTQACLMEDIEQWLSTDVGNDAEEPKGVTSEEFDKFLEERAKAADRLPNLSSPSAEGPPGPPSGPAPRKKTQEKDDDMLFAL

Row | Variant | effect of a mutation on the interaction
2 | W1202L | disrupting interaction strength
